Ends that are not written are not given here. * marks the point of attachment. NHCH2CH2(5-OH-indol-3-yl) = Oc1ccc2[nH]cc(CCN*)c2c1

The target of the experiment is full length recombinant WDR5 (human, UniProt P61964 1-334). Briefly: pull-down.

B1: biotinylated H3 (1-10) Q5ser peptide (peptide)
peptide: ARTKQ(NHCH2CH2(5-OH-indol-3-yl))TARKS
modifications: also: biotinylated, position not given here
Consider B1, for which the binding result was “binds”.

B2: biotinylated H3 (1-10) unmodified peptide (peptide)
peptide: ARTKQTARKS
modifications: also: biotinylated, position not given here
In the case of B2, the binding result is “binds”.

The values above are taken from publication doi:10.1101/2022.12.06.519310 (bioRxiv, 2022).
